T1: 3’hExo nuclease domain (human, UniProt Q8IV48 124-349)
T1 sequence (looked up): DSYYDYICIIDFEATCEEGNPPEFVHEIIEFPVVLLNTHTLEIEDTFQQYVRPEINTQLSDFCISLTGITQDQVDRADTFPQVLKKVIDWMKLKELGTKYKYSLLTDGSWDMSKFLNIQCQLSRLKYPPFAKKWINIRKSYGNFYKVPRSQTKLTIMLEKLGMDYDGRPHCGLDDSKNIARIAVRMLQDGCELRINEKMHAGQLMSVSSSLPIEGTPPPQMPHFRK

T2: 3’hExofl (human, UniProt Q8IV48 1-349)
T2 sequence (looked up): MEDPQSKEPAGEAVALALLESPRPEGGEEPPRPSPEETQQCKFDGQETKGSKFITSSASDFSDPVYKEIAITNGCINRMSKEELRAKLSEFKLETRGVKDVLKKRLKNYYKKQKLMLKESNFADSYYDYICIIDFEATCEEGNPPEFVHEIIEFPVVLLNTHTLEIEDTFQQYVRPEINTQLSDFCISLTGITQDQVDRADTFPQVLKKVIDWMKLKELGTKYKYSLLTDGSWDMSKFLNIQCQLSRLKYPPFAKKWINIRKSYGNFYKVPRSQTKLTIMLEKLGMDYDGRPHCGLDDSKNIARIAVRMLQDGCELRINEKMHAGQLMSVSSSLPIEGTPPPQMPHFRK

B1: UPF2-AL (domain or fragment, human, UniProt Q9HAU5 1015-1106, looked up)
chain: NDKDSKDSMTEGENLEEDEEEEEGGAETEEQSGNESEVNEPEEEEGSDNDDDEGEEEEEENTDYLTDSNKENETDEENTEVMIKGGGLKHVP
modifications: 15N-labelled (15N/13C for the assignments) in the NMR experiments
B2: UPF2^1024-1085 (domain or fragment, human, UniProt Q9HAU5 1024-1085, looked up)
chain: TEGENLEEDEEEEEGGAETEEQSGNESEVNEPEEEEGSDNDDDEGEEEEEENTDYLTDSNKE
modifications: also: 15N-labelled
B3: 3’hExo SAP domain (domain or fragment, human, UniProt Q8IV48 63-124, looked up)
chain: DPVYKEIAITNGCINRMSKEELRAKLSEFKLETRGVKDVLKKRLKNYYKKQKLMLKESNFAD
B4: 3’hExo (construct of the SPR experiment not stated) (enzyme)
chain: T2 sequence (looked up)

Tests used:
[1] = molecular target: T1, 3’hExo nuclease domain; assay: NMR titration
[2] = molecular target: T2, 3’hExofl; assay: SEC
[3] = molecular target: T2, 3’hExofl; assay: NMR titration
[4] = molecular target: B1; assay: NMR titration
[5] = molecular target: UPF2 (construct of the SPR experiment not stated) (human); assay: SPR
Sequence of UPF2 (construct of the SPR experiment not stated) (human) (Q9HAU5 whole entry): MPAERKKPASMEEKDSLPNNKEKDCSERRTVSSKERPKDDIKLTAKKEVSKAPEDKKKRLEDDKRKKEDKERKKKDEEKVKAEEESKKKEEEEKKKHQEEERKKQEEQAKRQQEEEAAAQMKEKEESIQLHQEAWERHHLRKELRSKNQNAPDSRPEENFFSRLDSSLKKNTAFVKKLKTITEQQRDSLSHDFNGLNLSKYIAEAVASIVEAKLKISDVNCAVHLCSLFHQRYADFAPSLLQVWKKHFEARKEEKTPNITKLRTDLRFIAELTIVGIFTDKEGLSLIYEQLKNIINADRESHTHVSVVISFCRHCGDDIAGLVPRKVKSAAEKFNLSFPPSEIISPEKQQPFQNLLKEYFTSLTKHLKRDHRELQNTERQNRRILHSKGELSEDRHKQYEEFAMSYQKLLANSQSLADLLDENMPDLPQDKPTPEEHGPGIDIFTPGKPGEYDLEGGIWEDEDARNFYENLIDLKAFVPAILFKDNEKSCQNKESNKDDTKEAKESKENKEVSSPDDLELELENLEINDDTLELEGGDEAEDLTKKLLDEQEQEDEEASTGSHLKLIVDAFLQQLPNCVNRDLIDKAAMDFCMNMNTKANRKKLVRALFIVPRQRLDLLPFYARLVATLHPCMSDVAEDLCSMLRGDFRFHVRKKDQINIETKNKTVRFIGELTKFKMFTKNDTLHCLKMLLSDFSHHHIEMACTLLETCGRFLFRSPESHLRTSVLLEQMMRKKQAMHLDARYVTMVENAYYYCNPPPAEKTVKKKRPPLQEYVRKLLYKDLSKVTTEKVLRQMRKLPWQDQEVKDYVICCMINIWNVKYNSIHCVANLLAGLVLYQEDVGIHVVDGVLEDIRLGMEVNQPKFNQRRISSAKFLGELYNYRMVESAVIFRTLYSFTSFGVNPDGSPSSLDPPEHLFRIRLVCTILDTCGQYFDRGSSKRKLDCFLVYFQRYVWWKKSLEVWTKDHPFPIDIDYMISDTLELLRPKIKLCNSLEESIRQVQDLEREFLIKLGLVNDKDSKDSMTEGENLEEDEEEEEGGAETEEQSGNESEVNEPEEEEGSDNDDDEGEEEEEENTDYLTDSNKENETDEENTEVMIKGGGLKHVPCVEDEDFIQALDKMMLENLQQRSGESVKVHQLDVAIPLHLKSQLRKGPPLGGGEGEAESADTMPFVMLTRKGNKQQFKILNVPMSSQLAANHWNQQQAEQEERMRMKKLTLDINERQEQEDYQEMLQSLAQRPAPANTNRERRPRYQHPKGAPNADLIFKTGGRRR

Binder: B1
binding result [1]: binds | binding result [2]: binds

Binder: B2
Kd [3]: ~200 µM

Binder: B3
binding result [4]: binds

Binder: B4
Kd [5]: 170 µM
